Measurements from publication doi:10.1101/773556.
Where two headings read alike, the source gives them in different places.

Legend:
Assay in all cases: ITC
[1] = target: EF-Tu methyltransferase EftM from P. aeruginosa strain PAHM4 (EftM^HM4), wild-type (Pseudomonas aeruginosa strain PAHM4)
[2] = target: EF-Tu methyltransferase EftM from P. aeruginosa strain PAHM4 (EftM^HM4), wild-type (Pseudomonas aeruginosa strain PAHM4); remark: listed apart in the source
[3] = target: EftM^HM4 W170F (Pseudomonas aeruginosa strain PAHM4)
[4] = target: EftM^HM4 W196F (Pseudomonas aeruginosa strain PAHM4)

Substance: translation elongation factor EF-Tu of P. aeruginosa PAO1 (tufB), wild-type (from UniProt P09591 1-397) (natural protein)
- Kd [1]: 27 µM
- Kd [2]: 28 µM
- fold decrease of dH against wild-type EftM^HM4 [3]: > 10 fold
- fold decrease of dH against wild-type EftM^HM4 [4]: > 10 fold
